# Laboratory results taken from paper PMC10923667, “Cloning and expression heterologous alanine dehydrogenase genes: Investigation of reductive amination potential of L-alanine dehydrogenases for green synthesis of alanine derivatives” (Heliyon, 2024).
# T1: AfAlaDH (Archaeoglobus fulgidus, UniProt O28608)
# T1 construct: gene ala; full-length, codon-optimised, pET-28a(+) NdeI/XhoI, N- and C-terminal 6xHis tags, E. coli BL21 (DE3), Ni-NTA purified
# T1 sequence (O28608 1-322): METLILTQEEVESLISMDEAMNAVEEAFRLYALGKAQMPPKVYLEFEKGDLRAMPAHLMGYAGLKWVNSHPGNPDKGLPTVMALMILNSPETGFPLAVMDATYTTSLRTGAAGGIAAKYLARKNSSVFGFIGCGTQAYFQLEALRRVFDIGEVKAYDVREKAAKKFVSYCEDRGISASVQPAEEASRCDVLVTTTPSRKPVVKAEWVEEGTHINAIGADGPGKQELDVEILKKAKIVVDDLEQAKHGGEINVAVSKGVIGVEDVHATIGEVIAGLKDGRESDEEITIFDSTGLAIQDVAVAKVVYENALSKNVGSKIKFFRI
# B1: MetAlaDH (Melghiribacillus thermohalophilus) (protein)
# chain: MKIGVPKEIKNNENRVALTPAGVMTLKKAGHEVFIETGAGLGSGFTDEQYTEAGAQIVTTAKEAWSQEMVMKVKEPLPEEYDYFYEGLILFTYLHLAAEPELTKALIEKKVVGIAYETVQLDNGSLPLLTPMSEVAGRMATQIGAQFLEKPHGGKGILLGGIPGVRRGKVTIIGGGVVGTNAAKIAVGLGADVTIVDLNPDRLRELDDIFGSSINTLMSNSLNIAEAVKESDLVIGAVLIPGAKAPKLVTEDMVKEMKKGSVIVDVAIDQGGIVETSDRITTHDNPTYEKHGVVHYAVANMPGAVPRTSTIGLTNVTVPYAVQLANKGYKQACLDHAALKKGINTLNGYVTYQAVAEAHGLEYENVDLLLK
# notes: full-length, codon-optimised, pET-28a(+) NdeI/XhoI, N- and C-terminal 6xHis tags, E. coli BL21 (DE3), Ni-NTA purified
# B2: TtAlaDH (Thermus thermophilus HB8) (protein)
# chain: MVIGVPKEIKTLENRVALTPGGVESLVRRGHTVLVERGAGEGSGLSDAEYARAGAELVGREEAWGAEMVVKVKEPLPEEYGFLREGLILFTYLHLAADRGLTEAMLRSGVTGIAYETVQLPDGTLPLLVPMSEVAGRMAPQVGAQFLEKPKGGRGVLLGGVPGVAPASVVILGGGTVGTNAAKIALGMGAQVTILDVNHKRLQYLDDVFGGRVITLTATEANIKKSVQHADLLIGAVLVPGAKAPKLVTRDMLSLMKEGAVIVDVAVDQGGCVETIRPTTHAEPTYVVDGVVHYGVANMPGAVPRTSTFALTNQTLPYVLKLAEKGLDALLEDAALLKGLNTHKGRLTHPGVAEAFGLPYTPPEEALRG
# notes: as for B1
# B3: AcfhAlaDH (Ammoniphilus sp. CFH 90114) (protein)
# chain: MIIGVPKEIKNNENRVGLTPAGVTAFKNNGHDVWVETNAGMGSGFTDEDYTAAGAKIVDSASVVWSAEMVVKVKEPLPEEYTYFREGLILYTYLHLAPEPELTKALVEKKVIAIAYETIQADNGSLPLLTPMSEVAGRMSIQIGAQFLEKSKGGKGVLLGGVPGVAPGEVVIVGGGIVGTNAAKMALGLGASVTLLDISADRLRQLDDMFQGRLKTLMSNSYNIAEAVKKADLVVGAVLIPGARAPRLVTEEMVKTMQPGSVIVDVAIDQGGSIETIDRITTHDNPTYVKHGVLHYAVANMPGAVARTSTIALTNVTVPYGVQIANKGWKQAALDNKALAKGINVVDGKVTYKAVAEAHGYTPVAVETVLTGQNVGV
# notes: as for B1
# B4: AfAlaDH (Archaeoglobus fulgidus DSM 4304) (protein)
# chain: METLILTQEEVESLISMDEAMNAVEEAFRLYALGKAQMPPKVYLEFEKGDLRAMPAHLMGYAGLKWVNSHPGNPDKGLPTVMALMILNSPETGFPLAVMDATYTTSLRTGAAGGIAAKYLARKNSSVFGFIGCGTQAYFQLEALRRVFDIGEVKAYDVREKAAKKFVSYCEDRGISASVQPAEEASRCDVLVTTTPSRKPVVKAEWVEEGTHINAIGADGPGKQELDVEILKKAKIVVDDLEQAKHGGEINVAVSKGVIGVEDVHATIGEVIAGLKDGRESDEEITIFDSTGLAIQDVAVAKVVYENALSKNVGSKIKFFRI
# notes: as for B1
# How the values were obtained:
# [1] = target: T1, AfAlaDH; test: NADH consumption at […] nm, Michaelis-Menten fit; type: biochemical; settings: reductive amination; 0.5 mM NADH, 0.5 M NH4Cl, pH 9.5, 25 °C; read-out: Pyruvate / KM
# [2] = system: T2, CC(=O)C(=O)O; test: purified protein; type: biochemical, Candidatus Bathyarchaeota archaeon; settings: reductive amination, 0.5 mM NADH, 0.5 M NH4Cl, pH 10.5, 25 °C
# T2 construct: full-length, codon-optimised, pET-28a(+) NdeI/XhoI, N- and C-terminal 6xHis tags, E. coli BL21 (DE3), Ni-NTA purified
# [3] = system: T3, CCCC(=O)C(=O)O; test: purified protein; type: biochemical, Candidatus Bathyarchaeota archaeon; settings: reductive amination, 0.5 mM NADH, 0.5 M NH4Cl, pH 10.5, 25 °C
# T3 construct: full-length, codon-optimised, pET-28a(+) NdeI/XhoI, N- and C-terminal 6xHis tags, E. coli BL21 (DE3), Ni-NTA purified
# [4] = system: T4, CCC(=O)C(=O)O; test: purified protein; type: biochemical, Candidatus Bathyarchaeota archaeon; settings: reductive amination, 0.5 mM NADH, 0.5 M NH4Cl, pH 10.5, 25 °C
# T4 construct: full-length, codon-optimised, pET-28a(+) NdeI/XhoI, N- and C-terminal 6xHis tags, E. coli BL21 (DE3), Ni-NTA purified
# [5] = substrate: CC(=O)C(=O)O; test: purified protein; type: biochemical, Melghiribacillus thermohalophilus; settings: reductive amination, 0.5 mM NADH, 0.5 M NH4Cl, pH 9.5, 25 °C
# [6] = substrate: CCC(=O)C(=O)O; test: purified protein; type: biochemical, Melghiribacillus thermohalophilus; settings: reductive amination, 0.5 mM NADH, 0.5 M NH4Cl, pH 9.5, 25 °C
# [7] = substrate: CCCC(=O)C(=O)O; test: purified protein; type: biochemical, Melghiribacillus thermohalophilus; settings: reductive amination, 0.5 mM NADH, 0.5 M NH4Cl, pH 9.5, 25 °C
# [8] = substrate: CCCCC(=O)C(=O)O; test: purified protein; type: biochemical, Thermus thermophilus; settings: reductive amination, 0.5 mM NADH, 0.5 M NH4Cl, pH 8.5, 25 °C
# [9] = substrate: CC(=O)C(=O)O; test: purified protein; type: biochemical, Thermus thermophilus; settings: reductive amination, 0.5 mM NADH, 0.5 M NH4Cl, pH 8.5, 25 °C
# [10] = substrate: CCC(=O)C(=O)O; test: purified protein; type: biochemical, Thermus thermophilus; settings: reductive amination, 0.5 mM NADH, 0.5 M NH4Cl, pH 8.5, 25 °C
# [11] = substrate: CCCC(=O)C(=O)O; test: purified protein; type: biochemical, Thermus thermophilus; settings: reductive amination, 0.5 mM NADH, 0.5 M NH4Cl, pH 8.5, 25 °C
# [12] = substrate: CC(=O)C(=O)O; test: purified protein; type: biochemical, Ammoniphilus sp. CFH 90114; settings: reductive amination, 0.5 mM NADH, 0.5 M NH4Cl, pH 10.5, 25 °C
# [13] = substrate: CCC(=O)C(=O)O; test: purified protein; type: biochemical, Ammoniphilus sp. CFH 90114; settings: reductive amination, 0.5 mM NADH, 0.5 M NH4Cl, pH 10.5, 25 °C
# [14] = substrate: CCCC(=O)C(=O)O; test: purified protein; type: biochemical, Ammoniphilus sp. CFH 90114; settings: reductive amination, 0.5 mM NADH, 0.5 M NH4Cl, pH 10.5, 25 °C
# [15] = substrate: CCC(=O)C(=O)O; test: purified protein; type: biochemical, Archaeoglobus fulgidus; settings: reductive amination, 0.5 mM NADH, 0.5 M NH4Cl, pH 9.5, 25 °C
# [16] = substrate: CCCC(=O)C(=O)O; test: purified protein; type: biochemical, Archaeoglobus fulgidus; settings: reductive amination, 0.5 mM NADH, 0.5 M NH4Cl, pH 9.5, 25 °C
molecule,measurement,setting,value
CC(=O)C(=O)O [pyruvate],Km,[1],200 ± 100 µM
CbAlaDH (Candidatus Bathyarchaeota archaeon),Km,[2],0.4 ± 0.0 mM
same,kcat,[2],0.5 ± 0.1 s⁻¹
same,kcat/Km,[2],1300 ± 100 M⁻¹ s⁻¹
same,Km,[3],0.8 ± 0.0 mM
same,kcat,[3],0.17 ± 0.1 s⁻¹
same,kcat/Km,[3],210 ± 100 M⁻¹ s⁻¹
same,Km,[4],2.2 ± 1.0 mM
same,kcat,[4],0.7 ± 0.2 s⁻¹
same,kcat/Km,[4],300 ± 200 M⁻¹ s⁻¹
B1,Km,[5],1.3 ± 0.4 mM
same,kcat,[5],140 ± 19.7 s⁻¹
same,kcat/Km,[5],108000 ± 12000 M⁻¹ s⁻¹
same,Km,[6],3.8 ± 1.2 mM
same,kcat,[6],3.3 s⁻¹
same,kcat/Km,[6],800 M⁻¹ s⁻¹
same,Km,[7],1.9 ± 0.0 mM
same,kcat,[7],0.7 s⁻¹
same,kcat/Km,[7],400 M⁻¹ s⁻¹
B2,Km,[8],0.4 mM
same,Km,[9],0.63 ± 0.2 mM
same,kcat,[9],87 ± 5.1 s⁻¹
same,kcat/Km,[9],138000 ± 15700 M⁻¹ s⁻¹
same,Km,[10],0.4 ± 0.1 mM
same,kcat,[10],1.1 s⁻¹
same,kcat/Km,[10],3000 ± 700 M⁻¹ s⁻¹
same,Km,[11],3.3 ± 1.1 mM
same,kcat,[11],1.2 s⁻¹
same,kcat/Km,[11],400 M⁻¹ s⁻¹
B3,Km,[12],0.7 ± 0.2 mM
same,kcat,[12],112 ± 6.6 s⁻¹
same,kcat/Km,[12],148000 ± 13500 M⁻¹ s⁻¹
same,Km,[13],1.3 ± 0.4 mM
same,kcat,[13],5.4 ± 0.5 s⁻¹
same,kcat/Km,[13],4000 ± 1400 M⁻¹ s⁻¹
same,Km,[14],5.2 ± 0.8 mM
same,kcat,[14],1 s⁻¹
same,kcat/Km,[14],200 M⁻¹ s⁻¹
B4,Km,[15],0.2 ± 0.0 mM
same,kcat,[15],7.5 ± 0.1 s⁻¹
same,kcat/Km,[15],34000 ± 100 M⁻¹ s⁻¹
same,Km,[16],0.3 ± 0.0 mM
same,kcat,[16],0.9 ± 0.2 s⁻¹
same,kcat/Km,[16],2700 ± 300 M⁻¹ s⁻¹
